Assay [1] has as its target rice RAD51A1 (japonica cultivar Nipponbare), His6 tag removed (Oryza sativa (japonica cultivar Nipponbare)). Briefly: SEC; Superdex 200 GL 10/300; 70 µg protein incubated 30 min at room temperature without nucleotide (the printed oligomer sizes), with 1 mM ATP (apparent sizes drastically increased) or with 1 mM ADP (no such change); elution in 20 mM HEPES-NaOH pH 7.5, 400 mM NaCl, 0.1 mM EDTA, 2 mM 2-mercaptoethanol, 1 mM MgCl2; apparent molecular sizes. (SEC sorts molecules by how far they enter the pores of the column.)

Assay [2] has as its target rice RAD51A2 (japonica cultivar Nipponbare), His6 tag removed (Oryza sativa (japonica cultivar Nipponbare)). The description is as above.

For the substance “rice RAD51A1 (japonica cultivar Nipponbare), His6 tag removed (natural protein)”, in assay [1], the stoichiometry N was 8 -mer.

For “rice RAD51A2 (japonica cultivar Nipponbare), His6 tag removed (natural protein)”, in assay [2], the stoichiometry N was 5 -mer.

One may read the stoichiometry N as a count of units in the complex or per binding partner.

The record behind these values is article PMC3790826.
